This is an account of results in article PMC11763338.

The test concerns the target recombinant human α-synuclein protein seeds (human) (UniProt P37840).

As to R18D (18-mer of D-arginine) (peptide), the percent inhibition of aggregation of α-syn monomer seeded by m2, cell-free ThT fluorescence at 24 h; R18D 0.05-0.25 μM pre-incubated with the seeds stood at 62.1% and the percent inhibition of intracellular α-syn aggregation in rat cortical neurons exposed to seeds (0.14 μM), HTRF aggregate assay at 48 h; R18D 0.0625-0.5 μM added 2 h after the seeds was 37.8%.
